This test addresses recombinant 6xHis-GBP (Arabidopsis thaliana) (UniProt Q9LU39). Kind of test: MST; 6xHis-GBP labelled with RED-NHS 2nd generation as target, with or without GluTR, ligand in 1:1 dilutions from 5 nM to 110 µM; Monolith NT.115, 30°C, 40% LED power, PBS.

Sequence of recombinant 6xHis-GBP (Arabidopsis thaliana) (Q9LU39 43-317): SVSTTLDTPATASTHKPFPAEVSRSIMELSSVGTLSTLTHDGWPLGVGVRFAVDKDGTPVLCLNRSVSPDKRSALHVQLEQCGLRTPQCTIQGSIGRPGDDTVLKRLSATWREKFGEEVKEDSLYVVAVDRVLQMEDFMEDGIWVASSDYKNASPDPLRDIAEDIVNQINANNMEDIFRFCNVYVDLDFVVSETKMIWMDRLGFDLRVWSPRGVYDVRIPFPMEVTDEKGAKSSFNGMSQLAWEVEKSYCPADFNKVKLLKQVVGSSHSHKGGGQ

Regarding “recombinant 6xHis-GluTR (from UniProt P42804 62-543) (enzyme)”, the dissociation constant Kd – broadly, the free concentration of one partner at which half of the binding sites on the other are occupied at equilibrium, for simple one-to-one binding – came to 42 nM.

The values above are taken from publication PMC9614494.
